The record followed here is patent publication US20140363428A1 (Chugai, published 2014).

To fix the notation:
B1: IgG1-F1201 (antibody)
heavy: QVQLQESGPGLVKPSETLSLTCAVSGHSISHDHAWSWVRQPPGEGLEWIGFISYSGITNYNPSLQGRVTISRDNSKNTLYLQMNSLRAEDTAVYYCARSLARTTAMDYWGEGTLVTVSSASTKGPSVFPLAPSSKSTSGGTAALGCLVKDYFPEPVTVSWNSGALTSGVHTFPAVLQSSGLYSLSSVVTVPSSSLGTQTYICNVNHKPSNTKVDKKVEPKSCDKTHTCPPCPAPELLGGPSVFLFPPKPKDVLYISREPEVTCVVVDVSHEDPEVKFNWYVDGVEVHNAKTKPREEQYNSTYRVVSVLTVLHQDWLNGKEYKCKVSNKALPAPIEKTISKAKGQPREPQVYTLPPSRDELTKNQVSLTCLVKGFYPSDIAVEWESNGQPENNYKTTPPVLDSDGSFFLYSKLTVDKSRWQQGNVFSCSVMHEALHYHVTRKELSLSP
light: not shown
notes: EU numbering; copies: 2 + 2
B2: IgG1-F1204 (antibody)
heavy: QVQLQESGPGLVKPSETLSLTCAVSGHSISHDHAWSWVRQPPGEGLEWIGFISYSGITNYNPSLQGRVTISRDNSKNTLYLQMNSLRAEDTAVYYCARSLARTTAMDYWGEGTLVTVSSASTKGPSVFPLAPSSKSTSGGTAALGCLVKDYFPEPVTVSWNSGALTSGVHTFPAVLQSSGLYSLSSVVTVPSSSLGTQTYICNVNHKPSNTKVDKKVEPKSCDKTHTCPPCPAPELLGGPSVFLFPPKPKDTLYITRQPEVTCVVVDVSHEDPEVKFNWYVDGVEVHNAKTKPREEQYNSTYRVVSVLTVLHQDWLNGKEYKCKVSNKALPAPIEKTISKAKGQPREPQVYTLPPSRDELTKNQVSLTCLVKGFYPSDIAVEWESNGQPENNYKTTPPVLDSDGSFFLYSKLTVDKSRWQQGNVFSCSVMHEALHYHVTRKELSLSP
light: not shown
notes: EU numbering; copies: 2 + 2
B3: IgG1-F1217 (antibody)
heavy: QVQLQESGPGLVKPSETLSLTCAVSGHSISHDHAWSWVRQPPGEGLEWIGFISYSGITNYNPSLQGRVTISRDNSKNTLYLQMNSLRAEDTAVYYCARSLARTTAMDYWGEGTLVTVSSASTKGPSVFPLAPSSKSTSGGTAALGCLVKDYFPEPVTVSWNSGALTSGVHTFPAVLQSSGLYSLSSVVTVPSSSLGTQTYICNVNHKPSNTKVDKKVEPKSCDKTHTCPPCPAPELLGGPSVFLFPPKPKDTTYISRTPEVTCVVVDVSHEDPEVKFNWYVDGVEVHNAKTKPREEQYNSTYRVVSVLTVLHQDWLNGKEYKCKVSNKALPAPIEKTISKAKGQPREPQVYTLPPSRDELTKNQVSLTCLVKGFYPSDIAVEWESNGQPENNYKTTPPVLDSDGSFFLYSKLTVDKSRWQQGNVFSCSVMHEALHYHVTQKSLSLSP
light: not shown
notes: EU numbering; copies: 2 + 2
B4: IgG1-F1203 (antibody)
heavy: QVQLQESGPGLVKPSETLSLTCAVSGHSISHDHAWSWVRQPPGEGLEWIGFISYSGITNYNPSLQGRVTISRDNSKNTLYLQMNSLRAEDTAVYYCARSLARTTAMDYWGEGTLVTVSSASTKGPSVFPLAPSSKSTSGGTAALGCLVKDYFPEPVTVSWNSGALTSGVHTFPAVLQSSGLYSLSSVVTVPSSSLGTQTYICNVNHKPSNTKVDKKVEPKSCDKTHTCPPCPAPELLGGPSVFLFPPKPKDTLYISRQPEVTCVVVDVSHEDPEVKFNWYVDGVEVHNAKTKPREEQYNSTYRVVSVLTVLHQDWLNGKEYKCKVSNKALPAPIEKTISKAKGQPREPQVYTLPPSRDELTKNQVSLTCLVKGFYPSDIAVEWESNGQPENNYKTTPPVLDSDGSFFLYSKLTVDKSRWQQGNVFSCSVMHEALHYHVTRKELSLSP
light: not shown
notes: EU numbering; copies: 2 + 2
B5: IgG1-F1205 (antibody)
heavy: QVQLQESGPGLVKPSETLSLTCAVSGHSISHDHAWSWVRQPPGEGLEWIGFISYSGITNYNPSLQGRVTISRDNSKNTLYLQMNSLRAEDTAVYYCARSLARTTAMDYWGEGTLVTVSSASTKGPSVFPLAPSSKSTSGGTAALGCLVKDYFPEPVTVSWNSGALTSGVHTFPAVLQSSGLYSLSSVVTVPSSSLGTQTYICNVNHKPSNTKVDKKVEPKSCDKTHTCPPCPAPELLGGPSVFLFPPKPKDVLYISRQPEVTCVVVDVSHEDPEVKFNWYVDGVEVHNAKTKPREEQYNSTYRVVSVLTVLHQDWLNGKEYKCKVSNKALPAPIEKTISKAKGQPREPQVYTLPPSRDELTKNQVSLTCLVKGFYPSDIAVEWESNGQPENNYKTTPPVLDSDGSFFLYSKLTVDKSRWQQGNVFSCSVMHEALHYHVTRKELSLSP
light: not shown
notes: EU numbering; copies: 2 + 2
B6: IgG1-F1206 (antibody)
heavy: QVQLQESGPGLVKPSETLSLTCAVSGHSISHDHAWSWVRQPPGEGLEWIGFISYSGITNYNPSLQGRVTISRDNSKNTLYLQMNSLRAEDTAVYYCARSLARTTAMDYWGEGTLVTVSSASTKGPSVFPLAPSSKSTSGGTAALGCLVKDYFPEPVTVSWNSGALTSGVHTFPAVLQSSGLYSLSSVVTVPSSSLGTQTYICNVNHKPSNTKVDKKVEPKSCDKTHTCPPCPAPELLGGPSVFLFPPKPKDVLYITRQPEVTCVVVDVSHEDPEVKFNWYVDGVEVHNAKTKPREEQYNSTYRVVSVLTVLHQDWLNGKEYKCKVSNKALPAPIEKTISKAKGQPREPQVYTLPPSRDELTKNQVSLTCLVKGFYPSDIAVEWESNGQPENNYKTTPPVLDSDGSFFLYSKLTVDKSRWQQGNVFSCSVMHEALHYHVTRKELSLSP
light: not shown
notes: EU numbering; copies: 2 + 2
B7: IgG1-F1216 (antibody)
heavy: QVQLQESGPGLVKPSETLSLTCAVSGHSISHDHAWSWVRQPPGEGLEWIGFISYSGITNYNPSLQGRVTISRDNSKNTLYLQMNSLRAEDTAVYYCARSLARTTAMDYWGEGTLVTVSSASTKGPSVFPLAPSSKSTSGGTAALGCLVKDYFPEPVTVSWNSGALTSGVHTFPAVLQSSGLYSLSSVVTVPSSSLGTQTYICNVNHKPSNTKVDKKVEPKSCDKTHTCPPCPAPELLGGPSVFLFPPKPKDTSYISRTPEVTCVVVDVSHEDPEVKFNWYVDGVEVHNAKTKPREEQYNSTYRVVSVLTVLHQDWLNGKEYKCKVSNKALPAPIEKTISKAKGQPREPQVYTLPPSRDELTKNQVSLTCLVKGFYPSDIAVEWESNGQPENNYKTTPPVLDSDGSFFLYSKLTVDKSRWQQGNVFSCSVMHEALHYHVTQKSLSLSP
light: not shown
notes: EU numbering; copies: 2 + 2
B8: IgG1-F1211 (antibody)
heavy: QVQLQESGPGLVKPSETLSLTCAVSGHSISHDHAWSWVRQPPGEGLEWIGFISYSGITNYNPSLQGRVTISRDNSKNTLYLQMNSLRAEDTAVYYCARSLARTTAMDYWGEGTLVTVSSASTKGPSVFPLAPSSKSTSGGTAALGCLVKDYFPEPVTVSWNSGALTSGVHTFPAVLQSSGLYSLSSVVTVPSSSLGTQTYICNVNHKPSNTKVDKKVEPKSCDKTHTCPPCPAPELLGGPSVFLFPPKPKDTHYISRTPEVTCVVVDVSHEDPEVKFNWYVDGVEVHNAKTKPREEQYNSTYRVVSVLTVLHQDWLNGKEYKCKVSNKALPAPIEKTISKAKGQPREPQVYTLPPSRDELTKNQVSLTCLVKGFYPSDIAVEWESNGQPENNYKTTPPVLDSDGSFFLYSKLTVDKSRWQQGNVFSCSVMHEALHYHVTQKSLSLSP
light: not shown
notes: EU numbering; copies: 2 + 2
B9: IgG1-F1218 (antibody)
heavy: QVQLQESGPGLVKPSETLSLTCAVSGHSISHDHAWSWVRQPPGEGLEWIGFISYSGITNYNPSLQGRVTISRDNSKNTLYLQMNSLRAEDTAVYYCARSLARTTAMDYWGEGTLVTVSSASTKGPSVFPLAPSSKSTSGGTAALGCLVKDYFPEPVTVSWNSGALTSGVHTFPAVLQSSGLYSLSSVVTVPSSSLGTQTYICNVNHKPSNTKVDKKVEPKSCDKTHTCPPCPAPELLGGPSVFLFPPKPKDTVYISRTPEVTCVVVDVSHEDPEVKFNWYVDGVEVHNAKTKPREEQYNSTYRVVSVLTVLHQDWLNGKEYKCKVSNKALPAPIEKTISKAKGQPREPQVYTLPPSRDELTKNQVSLTCLVKGFYPSDIAVEWESNGQPENNYKTTPPVLDSDGSFFLYSKLTVDKSRWQQGNVFSCSVMHEALHYHVTQKSLSLSP
light: not shown
notes: EU numbering; copies: 2 + 2
B10: IgG1-F1202 (antibody)
heavy: QVQLQESGPGLVKPSETLSLTCAVSGHSISHDHAWSWVRQPPGEGLEWIGFISYSGITNYNPSLQGRVTISRDNSKNTLYLQMNSLRAEDTAVYYCARSLARTTAMDYWGEGTLVTVSSASTKGPSVFPLAPSSKSTSGGTAALGCLVKDYFPEPVTVSWNSGALTSGVHTFPAVLQSSGLYSLSSVVTVPSSSLGTQTYICNVNHKPSNTKVDKKVEPKSCDKTHTCPPCPAPELLGGPSVFLFPPKPKDVLYITREPEVTCVVVDVSHEDPEVKFNWYVDGVEVHNAKTKPREEQYNSTYRVVSVLTVLHQDWLNGKEYKCKVSNKALPAPIEKTISKAKGQPREPQVYTLPPSRDELTKNQVSLTCLVKGFYPSDIAVEWESNGQPENNYKTTPPVLDSDGSFFLYSKLTVDKSRWQQGNVFSCSVMHEALHYHVTRKELSLSP
light: not shown
notes: EU numbering; copies: 2 + 2
B11: IgG1-F1207 (antibody)
heavy: QVQLQESGPGLVKPSETLSLTCAVSGHSISHDHAWSWVRQPPGEGLEWIGFISYSGITNYNPSLQGRVTISRDNSKNTLYLQMNSLRAEDTAVYYCARSLARTTAMDYWGEGTLVTVSSASTKGPSVFPLAPSSKSTSGGTAALGCLVKDYFPEPVTVSWNSGALTSGVHTFPAVLQSSGLYSLSSVVTVPSSSLGTQTYICNVNHKPSNTKVDKKVEPKSCDKTHTCPPCPAPELLGGPSVFLFPPKPKDTLMISRTPEVTCVVVDVSHEDPEVKFNWYVDGVEVHNAKTKPREEQYNSTYRVVSVLTVLHQDWLNGKEYKCKVSNKALPAPEEKTISKAKGQPREPQVYTLPPSRDELTKNQVSLTCLVKGFYPSDIAVEWESNGQPENNYKTTPPVLDSDGSFFLYSKLTVDKSRWQQGNVFSCSVLHEALHSHYTQKSLSLSP
light: not shown
notes: EU numbering; copies: 2 + 2
B12: IgG1-F1208 (antibody)
heavy: QVQLQESGPGLVKPSETLSLTCAVSGHSISHDHAWSWVRQPPGEGLEWIGFISYSGITNYNPSLQGRVTISRDNSKNTLYLQMNSLRAEDTAVYYCARSLARTTAMDYWGEGTLVTVSSASTKGPSVFPLAPSSKSTSGGTAALGCLVKDYFPEPVTVSWNSGALTSGVHTFPAVLQSSGLYSLSSVVTVPSSSLGTQTYICNVNHKPSNTKVDKKVEPKSCDKTHTCPPCPAPELLGGPSVFLFPPKPKDTAYISRTPEVTCVVVDVSHEDPEVKFNWYVDGVEVHNAKTKPREEQYNSTYRVVSVLTVLHQDWLNGKEYKCKVSNKALPAPIEKTISKAKGQPREPQVYTLPPSRDELTKNQVSLTCLVKGFYPSDIAVEWESNGQPENNYKTTPPVLDSDGSFFLYSKLTVDKSRWQQGNVFSCSVMHEALHYHVTQKSLSLSP
light: not shown
notes: EU numbering; copies: 2 + 2

T1 sequence (P55899 24-297 limits assumed, chain 1 of 2): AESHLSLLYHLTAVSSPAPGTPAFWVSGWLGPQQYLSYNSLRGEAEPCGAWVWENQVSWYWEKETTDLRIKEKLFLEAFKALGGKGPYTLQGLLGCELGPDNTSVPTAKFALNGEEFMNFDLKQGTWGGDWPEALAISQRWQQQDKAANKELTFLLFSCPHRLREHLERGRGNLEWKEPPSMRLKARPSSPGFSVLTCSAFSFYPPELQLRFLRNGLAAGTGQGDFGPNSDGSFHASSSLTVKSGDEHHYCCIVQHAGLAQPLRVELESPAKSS
T1 sequence (P61769 21-119 limits assumed, chain 2 of 2): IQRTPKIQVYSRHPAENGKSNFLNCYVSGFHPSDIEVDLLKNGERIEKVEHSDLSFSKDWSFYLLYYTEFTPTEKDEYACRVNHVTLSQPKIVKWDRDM

This assay addresses T1, soluble human FcRn (human, UniProt P55899 24-297; P61769 21-119).
T1 construct: Heterodimer of FcRn alpha chain and beta2-microglobulin; also called hFcRn
The experiment in a line: SPR (Biacore T100), antibody captured by protein L, hFcRn as analyte, pH 7.0, 25 C.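 Further: KD calculated from fitted association and dissociation rate constants of the sensorgrams, protein L amine-coupled to the sensor chip, sodium phosphate running buffer with NaCl and Tween20.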 For orientation: SPR reads the build-up and loss of mass on a sensor chip optically.
B1: the Kd (commonly a measure of binding affinity in units of concentration) came to 110 nM. Under B2 stands 120 nM; under B3, 1100 nM; under B4, 150 nM. In turn, B5 registered a dissociation constant (Kd) of 200 nM. For B6 the value was 170 nM; for B7, 1200 nM; for B8, 1200 nM. Under B9 stands 250 nM; under B10, 88 nM. In turn, B11 returned an equilibrium dissociation constant (Kd) of 1100 nM. Molecule B12 showed a dissociation constant Kd of 570 nM.
